Assay [1] deals with T1, human BTLA on cells (stably transfected 293c18 cells; human peripheral blood T and B cells) (human, UniProt Q7Z6A9 31-289).
T1 construct: whole, on cells; the cells are named under assay; also called cell surface BTLA; full-length human BTLA
The assay can be described thus: flow cytometry, DyLight 650-labeled 6G3 IgG4 on human peripheral blood CD20+ B cells. The method, then: PBMCs were washed and incubated at 2×10⁷ cells/ml in FACS buffer (PBS, 1% BSA, 0.02% sodium azide) with Human BD Fc Block (2.5 μg/1×10⁶ cells, BD Biosciences) and LIVE/DEAD® Fixable Yellow Dead Cell Stain (30 μl, ThermoFisher Scientific) for 10 minutes on ice. Cells were washed once in FACS buffer, resuspended in FACS buffer at 1×10⁷ cells/ml and the following phenotyping antibodies added: Alexa Fluor 488-anti-human CD3E clone SK7, Brilliant Violet 421-anti-human CD4 clone OKT4, Brilliant Violet 785-anti-human CD8 clone SK1, and Brilliant Violet 570-anti-human CD20 clone 2H7 (50 μl each; all from BioLegend, Inc.). […] Samples were washed twice in FACS buffer, resuspended in 150 μl/well FACS buffer, and analyzed for fluorescence on a NovoCyte Flow Cytometer (ACEA Biosciences, Inc.). Data were analyzed using NovoExpress Software (ACEA Biosciences, Inc.). Median fluorescence intensities of anti-BTLA or isotype staining on gated CD4⁺ T cells (FIG. 4), CD8⁺ T cells (FIG. 4), or CD20⁺ B cells (FIG. 4) were graphed and curves fit with log(agonist) vs. response (three parameters) least squares fit for EC₅₀ calculation in GraphPad Prism (GraphPad Software, Inc.).
(Flow cytometry measures light scatter and fluorescence of single cells or particles in a stream.)

The target in assay [2] is T2, cynomolgus monkey BTLA on cells (stably transfected 293c18 clone 1G5); cynomolgus peripheral blood T and B … (cynomolgus monkey, UniProt A0A2K5W7M7 31-289).
T2 construct: whole, on cells; also called cynomolgus monkey BTLA 293c18 cells
T2 sequence: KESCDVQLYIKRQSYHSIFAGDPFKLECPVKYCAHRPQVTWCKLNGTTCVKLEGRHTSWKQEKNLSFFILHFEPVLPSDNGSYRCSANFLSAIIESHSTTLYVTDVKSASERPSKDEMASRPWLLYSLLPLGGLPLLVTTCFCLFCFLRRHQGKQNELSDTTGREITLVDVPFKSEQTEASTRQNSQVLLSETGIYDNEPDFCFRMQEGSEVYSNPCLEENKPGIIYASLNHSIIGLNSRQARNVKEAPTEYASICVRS
Put plainly: flow cytometry on cynomolgus monkey BTLA 293c18 cells, anti-human kappa-PE detection; both lots (APE10840.03 and APE10840.04); cynomolgus BTLA 293c18 cells. The method, then:
293c18 cell clone 1E4 stably expressing human BTLA construct or clone 1G5 stably expressing cynomolgus monkey BTLA were harvested with Accutase solution (Millipore Sigma/Sigma-Aldrich) and washed once with Phosphate-Buffered Saline, 1% BSA. 293c18 cynomolgus monkey BTLA cells were loaded with the lipophilic carbocyanine dye, DiD (2 μM, 1,1′-dioctadecyl-3,3,3′,3′-tetramenthylindodicarbocyanine; ThermoFisher Scientific) by rocking gently for 10 minutes at room temperature. DiD-stained cells were washed in PBS, 1% BSA and equal amounts of human BTLA 293c18 cells and cynomolgus monkey BTLA 293c18-DiD-stained cells were mixed. Cells (2×10⁵ total cells/sample) were incubated with the indicated concentrations of purified 6G3 IgG4 (two production lots, APE10840.03 and APE10840.04 (H Chain SEQ ID NO: 144, L Chain SEQ ID NO: 174)) or human IgG4 isotype control antibody specific for hen egg lysozyme with gentle shaking for 10 minutes at 4° C. in FACS buffer (PBS, 1% BSA, 0.02% sodium azide). […] Cells were washed and resuspended in FACS buffer and analyzed for fluorescence on a BD FACSArray (BD Biosciences). DiD stained cells expressing cynomolgus monkey BTLA (FIG. 3) were analyzed for median fluorescence intensity (MFI) separately from cells expressing human BTLA (FIG. 3). […]

Data on one molecule can be found in patent publication US20230391872A1 (ANAPTYSBIO, published 2023).

In general, EC50 refers to the concentration that produces a half-maximal response.

B1: 6G3 IgG4 anti-BTLA antibody (APE10840 / APE12839 / APE13308) (antibody, V domains shown)
VH: QVQLVQSGAEVKKPGSSVKVSCKASGYVFSTSWMNWVRQAPGQGLEWMGRIYPGDADTNYVGKFKGRVTITADKSTTTAYMELSSLRSEDTAVYFCAKSGTFNFGNYRWYFDVWGKGTTVTVSS
VL: AIQLTQSPSSLSASVGDRVTITCRVSENIYSHLAWYQQKPGKAPKLLIYAATNLALGVPSRFSGSGSGTDYTLTISSLQPEDFATYYCQLFWGPPLTFGGGTKVEIKR
notes: Humanized antibody from a mouse hybridoma, tested as human IgG4 (detected with anti-human kappa); Some assays used labelled lots (DyLight 650, AF647, biotin, DyL488); also called 6G3 antibody; APE10840.03
For B1, the 50% effective concentration (EC50) was around 0.5 nM in assay [1] and around 2.3 nM in assay [2].
